These results are taken from article PMC7728438.

Where only a bound is given, the exact number is not on record here.

Assay [1] addresses PC-1^deltaNT/PC-2_(F604P) heteromer (UniProt P98161).
Assay [2] deals with native heteromeric PC-1/PC-2 polycystin complex of mIMCD-3 primary cilia (mouse (endogenous in mIMCD-3)) (UniProt O08852).
Assay [3] has the same target. This is another data set of the same source.
The target of assay [4] is PC-2 F604P (human polycystin-2 with the gain of function mutation F604P) (human) (UniProt Q13563).
PC-2 F604P (human polycystin-2 with the gain of function mutation F604P) (human), sequence (Q13563 whole entry F604P): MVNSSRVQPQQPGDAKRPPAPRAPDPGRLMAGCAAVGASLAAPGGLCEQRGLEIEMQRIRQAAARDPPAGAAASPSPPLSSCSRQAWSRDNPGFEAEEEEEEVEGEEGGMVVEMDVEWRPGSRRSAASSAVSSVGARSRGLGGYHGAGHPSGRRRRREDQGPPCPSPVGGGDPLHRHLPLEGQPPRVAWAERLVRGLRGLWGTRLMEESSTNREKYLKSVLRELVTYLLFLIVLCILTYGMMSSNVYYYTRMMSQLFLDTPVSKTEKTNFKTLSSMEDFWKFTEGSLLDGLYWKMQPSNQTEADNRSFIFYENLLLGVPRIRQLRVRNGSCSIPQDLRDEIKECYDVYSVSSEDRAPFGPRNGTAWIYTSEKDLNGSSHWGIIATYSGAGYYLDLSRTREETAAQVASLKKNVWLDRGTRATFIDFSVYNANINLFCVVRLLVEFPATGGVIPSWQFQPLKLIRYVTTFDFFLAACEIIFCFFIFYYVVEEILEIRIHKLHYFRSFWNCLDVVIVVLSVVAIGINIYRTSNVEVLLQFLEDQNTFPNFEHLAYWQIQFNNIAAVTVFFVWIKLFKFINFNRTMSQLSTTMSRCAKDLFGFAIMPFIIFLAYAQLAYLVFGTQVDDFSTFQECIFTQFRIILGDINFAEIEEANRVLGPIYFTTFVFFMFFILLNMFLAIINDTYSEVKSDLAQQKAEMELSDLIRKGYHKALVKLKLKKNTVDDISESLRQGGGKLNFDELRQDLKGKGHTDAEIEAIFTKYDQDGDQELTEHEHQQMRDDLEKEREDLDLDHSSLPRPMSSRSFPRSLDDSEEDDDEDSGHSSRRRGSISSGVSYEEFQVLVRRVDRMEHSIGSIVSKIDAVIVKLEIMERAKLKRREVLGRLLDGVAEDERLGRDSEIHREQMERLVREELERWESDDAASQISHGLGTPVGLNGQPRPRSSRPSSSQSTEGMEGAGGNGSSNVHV

PC-1 N-terminal fragment NTF^263-535, sequence (P98161 263-535): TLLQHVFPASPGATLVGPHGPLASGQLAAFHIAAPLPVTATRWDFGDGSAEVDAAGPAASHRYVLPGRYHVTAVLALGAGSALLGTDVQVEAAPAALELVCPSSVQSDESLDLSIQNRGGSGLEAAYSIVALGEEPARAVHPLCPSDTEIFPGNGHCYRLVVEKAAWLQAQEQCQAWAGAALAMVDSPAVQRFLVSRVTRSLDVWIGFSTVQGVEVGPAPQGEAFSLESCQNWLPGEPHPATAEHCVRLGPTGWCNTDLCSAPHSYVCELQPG
PC-1^deltaNT/PC-2_(F604P) heteromer, sequence (P98161 other isoform, or with tags, fused parts or gaps F604P | F604P, chain 1 of 2): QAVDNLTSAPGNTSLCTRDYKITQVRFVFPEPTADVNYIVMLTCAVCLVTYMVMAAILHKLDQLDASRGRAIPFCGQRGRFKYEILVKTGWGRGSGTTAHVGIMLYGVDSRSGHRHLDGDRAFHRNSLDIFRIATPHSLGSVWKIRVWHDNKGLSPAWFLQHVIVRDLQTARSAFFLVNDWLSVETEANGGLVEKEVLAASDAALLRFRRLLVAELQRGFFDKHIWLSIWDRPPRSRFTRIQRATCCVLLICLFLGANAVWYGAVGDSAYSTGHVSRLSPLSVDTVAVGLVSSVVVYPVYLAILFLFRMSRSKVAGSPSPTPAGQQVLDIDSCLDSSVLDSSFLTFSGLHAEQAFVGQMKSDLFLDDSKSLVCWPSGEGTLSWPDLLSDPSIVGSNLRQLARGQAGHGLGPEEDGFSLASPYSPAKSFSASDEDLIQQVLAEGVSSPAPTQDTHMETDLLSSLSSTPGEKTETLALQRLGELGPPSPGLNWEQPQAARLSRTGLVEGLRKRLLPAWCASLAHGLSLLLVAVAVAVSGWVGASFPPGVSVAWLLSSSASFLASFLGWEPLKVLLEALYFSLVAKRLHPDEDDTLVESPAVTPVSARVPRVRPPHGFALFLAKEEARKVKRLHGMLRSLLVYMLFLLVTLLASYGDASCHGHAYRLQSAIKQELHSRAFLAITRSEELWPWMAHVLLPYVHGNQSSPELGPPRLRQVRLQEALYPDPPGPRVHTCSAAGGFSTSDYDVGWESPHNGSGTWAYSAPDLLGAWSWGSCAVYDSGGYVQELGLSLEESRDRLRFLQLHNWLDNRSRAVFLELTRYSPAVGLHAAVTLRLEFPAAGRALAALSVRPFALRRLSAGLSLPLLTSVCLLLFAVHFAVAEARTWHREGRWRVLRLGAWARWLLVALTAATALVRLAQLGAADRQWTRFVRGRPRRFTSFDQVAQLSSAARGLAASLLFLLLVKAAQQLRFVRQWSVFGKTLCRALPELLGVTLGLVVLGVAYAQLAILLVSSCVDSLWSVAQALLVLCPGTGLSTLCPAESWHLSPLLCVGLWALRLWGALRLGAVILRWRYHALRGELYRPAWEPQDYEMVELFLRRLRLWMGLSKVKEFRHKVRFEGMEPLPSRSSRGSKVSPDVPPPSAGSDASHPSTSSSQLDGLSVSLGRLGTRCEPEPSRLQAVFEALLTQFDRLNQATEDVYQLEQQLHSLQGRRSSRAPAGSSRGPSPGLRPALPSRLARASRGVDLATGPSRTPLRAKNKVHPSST
PC-1^deltaNT/PC-2_(F604P) heteromer, sequence (Q13563 whole entry F604P, chain 2 of 2, further chain): as the sequence (Q13563 whole entry F604P) above
PC-1 N-terminal fragment NTF^24-852, sequence (P98161 24-852): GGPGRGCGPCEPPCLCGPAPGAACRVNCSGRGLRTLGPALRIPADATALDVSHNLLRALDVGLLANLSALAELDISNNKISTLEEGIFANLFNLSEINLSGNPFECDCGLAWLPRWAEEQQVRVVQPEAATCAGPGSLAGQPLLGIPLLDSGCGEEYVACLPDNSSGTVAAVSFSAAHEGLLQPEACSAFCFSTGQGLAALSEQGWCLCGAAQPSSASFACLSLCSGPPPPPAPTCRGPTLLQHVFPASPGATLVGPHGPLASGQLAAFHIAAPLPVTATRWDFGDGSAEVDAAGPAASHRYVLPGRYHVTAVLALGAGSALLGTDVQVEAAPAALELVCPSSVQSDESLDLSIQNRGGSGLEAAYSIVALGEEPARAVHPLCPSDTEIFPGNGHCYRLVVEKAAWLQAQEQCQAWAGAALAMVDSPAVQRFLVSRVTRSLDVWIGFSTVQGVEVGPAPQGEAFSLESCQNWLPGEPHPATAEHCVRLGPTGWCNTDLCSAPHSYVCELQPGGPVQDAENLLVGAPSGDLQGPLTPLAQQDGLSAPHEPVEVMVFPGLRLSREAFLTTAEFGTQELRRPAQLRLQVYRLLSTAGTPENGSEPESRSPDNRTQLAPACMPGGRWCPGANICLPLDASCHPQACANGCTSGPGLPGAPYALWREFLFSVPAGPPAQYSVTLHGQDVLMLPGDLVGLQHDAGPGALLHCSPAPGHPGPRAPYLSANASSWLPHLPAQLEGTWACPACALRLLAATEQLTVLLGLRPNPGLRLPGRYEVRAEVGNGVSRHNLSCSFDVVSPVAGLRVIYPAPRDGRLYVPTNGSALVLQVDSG

For “PC-1 N-terminal fragment NTF^24-852 (from UniProt P98161 24-852) (domain or fragment)”, the outward whole-cell currents of HEK293 cells expressing PC-1deltaNT/PC-2 F604P with the fragment in the bath solution in assay [1] is 65.5 pA/pF.
Consider “PC-1 N-terminal fragment NTF^263-535 (from UniProt P98161 263-535) (domain or fragment)”, for which, in assay [2], the spike-like elevations of ciliary Ca2+ (Arl13b-mScarlet-GCaMP6s, TIRF microscopy) in mIMCD-3 cells after the fragment; none in untreated cells, with boiled fragment or in PC-2 knockout cells is > 0.35 ΔF/F. The substance further came in with a probability of single channel openings at negative membrane potentials, excised inside-out patches of mIMCD-3 primary cilia, 0.7 ug/mL (~50 nM) fragment in the pipette in assay [3] of 5 fold. In assay [1], this substance displayed an outward whole-cell currents of HEK293 cells expressing PC-1deltaNT/PC-2 F604P with the fragment in the bath solution (boiled fragment inactive) of 61.4 pA/pF.
For the substance “sPC-1 (human polycystin-1 with Ig kappa-chain secretion sequence and HA tag in place of its own signal peptide) (from UniProt P98161 24-4303) (receptor)”, in assay [4], the relative open probability at -100 mV, whole-cell patch clamp, HEK293 cells is 0.1; the whole-cell patch clamp current density at +100 mV, HEK293 cells co-expressing sPC-1 and PC-2 F604P (PC-2 F604P alone gave negligible currents) was 123 pA/pF.
Turning to “sPC-1_(pore) (sPC-1 with R4100G, R4107G and H4111G) (from UniProt P98161 24-4303) (receptor)”, in assay [4], the relative open probability at -100 mV, whole-cell patch clamp, HEK293 cells turned out to be 0.3; the whole-cell patch clamp current density at +180 mV, HEK293 cells co-expressing sPC-1pore and PC-2 F604P amounted to 71.1 pA/pF.
